# Results: PMC12815461 (2026)
# B1: FLAG-tagged wild-type GMCL1 (germ cell-less protein-like 1) [human] / 53BP1 (p53-binding protein 1), endogenous in HEK293T [human (endogenous in HEK293T)] (parent complex)
# chain 1: MGSLSSRVLRQPRPALAQQAQGARAGGSARRPDTGDDAAGHGFCYCAGSHKRKRSSGSFCYCHPDSETDEDEEEGDEQQRLLNTPRRKKLKSTSKYIYQTLFLNGENSDIKICALGEEWSLHKIYLCQSGYFSSMFSGSWKESSMNIIELEIPDQNIDVEALQVAFGSLYRDDVLIKPSRVVAILAAACLLQLDGLIQQCGETMKETVNVKTVCGYYTSAGTYGLDSVKKKCLEWLLNNLMTHQNVELFKELSINVMKQLIGSSNLFVMQVEMDIYTALKKWMFLQLVPSWNGSLKQLLTETDVWFSKQRKDFEGMAFLETEQGKPFVSVFRHLRLQYIISDLASARIIEQDAVVPSEWLSSVYKQQWFAMLRAEQDSEVGPQEINKEELEGNSMRCGRKLAKDGEYCWRWTGFNFGFDLLVTYTNRYIIFKRNTLNQPCSGSVSLQPRRSIAFRLRLASFDSSGKLICSRTTGYQILTLEKDQEQVVMNLDSRLLIFPLYICCNFLYISPEKKN
# chain 2: MDPTGSQLDSDFSQQDTPCLIIEDSQPESQVLEDDSGSHFSMLSRHLPNLQTHKENPVLDVVSNPEQTAGEERGDGNSGFNEHLKENKVADPVDSSNLDTCGSISQVIEQLPQPNRTSSVLGMSVESAPAVEEEKGEELEQKEKEKEEDTSGNTTHSLGAEDTASSQLGFGVLELSQSQDVEENTVPYEVDKEQLQSVTTNSGYTRLSDVDANTAIKHEEQSNEDIPIAEQSSKDIPVTAQPSKDVHVVKEQNPPPARSEDMPFSPKASVAAMEAKEQLSAQELMESGLQIQKSPEPEVLSTQEDLFDQSNKTVSSDGCSTPSREEGGCSLASTPATTLHLLQLSGQRSLVQDSLSTNSSDLVAPSPDAFRSTPFIVPSSPTEQEGRQDKPMDTSVLSEEGGEPFQKKLQSGEPVELENPPLLPESTVSPQASTPISQSTPVFPPGSLPIPSQPQFSHDIFIPSPSLEEQSNDGKKDGDMHSSSLTVECSKTSEIEPKNSPEDLGLSLTGDSCKLMLSTSEYSQSPKMESLSSHRIDEDGENTQIEDTEPMSPVLNSKFVPAENDSILMNPAQDGEVQLSQNDDKTKGDDTDTRDDISILATGCKGREETVAEDVCIDLTCDSGSQAVPSPATRSEALSSVLDQEEAMEIKEHHPEEGSSGSEVEEIPETPCESQGEELKEENMESVPLHLSLTETQSQGLCLQKEMPKKECSEAMEVETSVISIDSPQKLAILDQELEHKEQEAWEEATSEDSSVVIVDVKEPSPRVDVSCEPLEGVEKCSDSQSWEDIAPEIEPCAENRLDTKEEKSVEYEGDLKSGTAETEPVEQDSSQPSLPLVRADDPLRLDQELQQPQTQEKTSNSLTEDSKMANAKQLSSDAEAQKLGKPSAHASQSFCESSSETPFHFTLPKEGDIIPPLTGATPPLIGHLKLEPKRHSTPIGISNYPESTIATSDVMSESMVETHDPILGSGKGDSGAAPDVDDKLCLRMKLVSPETEASEESLQFNLEKPATGERKNGSTAVAESVASPQKTMSVLSCICEARQENEARSEDPPTTPIRGNLLHFPSSQGEEEKEKLEGDHTIRQSQQPMKPISPVKDPVSPASQKMVIQGPSSPQGEAMVTDVLEDQKEGRSTNKENPSKALIERPSQNNIGIQTMECSLRVPETVSAATQTIKNVCEQGTSTVDQNFGKQDATVQTERGSGEKPVSAPGDDTESLHSQGEEEFDMPQPPHGHVLHRHMRTIREVRTLVTRVITDVYYVDGTEVERKVTEETEEPIVECQECETEVSPSQTGGSSGDLGDISSFSSKASSLHRTSSGTSLSAMHSSGSSGKGAGPLRGKTSGTEPADFALPSSRGGPGKLSPRKGVSQTGTPVCEEDGDAGLGIRQGGKAPVTPRGRGRRGRPPSRTTGTRETAVPGPLGIEDISPNLSPDDKSFSRVVPRVPDSTRRTDVGAGALRRSDSPEIPFQAAAGPSDGLDASSPGNSFVGLRVVAKWSSNGYFYSGKITRDVGAGKYKLLFDDGYECDVLGKDILLCDPIPLDTEVTALSEDEYFSAGVVKGHRKESGELYYSIEKEGQRKWYKRMAVILSLEQGNRLREQYGLGPYEAVTPLTKAADISLDNLVEGKRKRRSNVSSPATPTASSSSSTTPTRKITESPRASMGVLSGKRKLITSEEERSPAKRGRKSATVKPGAVGAGEFVSPCESGDNTGEPSALEEQRGPLPLNKTLFLGYAFLLTMATTSDKLASRSKLPDGPTGSSEEEEEFLEIPPFNKQYTESQLRAGAGYILEDFNEAQCNTAYQCLLIADQHCRTRKYFLCLASGIPCVSHVWVHDSCHANQLQNYRNYLLPAGYSLEEQRILDWQPRENPFQNLKVLLVSDQQQNFLELWSEILMTGGAASVKQHHSSAHNKDIALGVFDVVVTDPSCPASVLKCAEALQLPVVSQEWVIQCLIVGERIGFKQHPKYKHDYVSH
# Variants of: B1
# Experiment: IP-MS (FLAG immunoprecipitation, MS/MS); HEK293T, 24 hr after transfection; read off a plot
row,Variant,screen value
1,chain 1 MGSLSSRVLRQPRPALAQQAQGARAGGSARRPDTGDDAAGHGFCYCAGSHKRKRSSGSFCYCHPDSETDEDEEEGDEQQRLLNTPRRKKLKSTSKYIYQTLFLNGENSDIKICALGEEWSLHKIYLCQSGYFSSMFSGSWKKSSMNIIELEIPDQNIDVEALQVAFGSLYRDDVLIKPSRVVAILAAACLLQLDGLIQQCGETMKETVNVKTVCGYYTSAGTYGLDSVKKKCLEWLLNNLMTHQNVELFKELSINVMKQLIGSSNLFVMQVEMDIYTALKKWMFLQLVPSWNGSLKQLLTETDVWFSKQRKDFEGMAFLETEQGKPFVSVFRHLRLQYIISDLASARIIEQDAVVPSEWLSSVYKQQWFAMLRAEQDSEVGPQEINKEELEGNSMRCGRKLAKDGEYCWRWTGFNFGFDLLVTYTNRYIIFKRNTLNQPCSGSVSLQPRRSIAFRLRLASFDSSGKLICSRTTGYQILTLEKDQEQVVMNLDSRLLIFPLYICCNFLYISPEKKN [chain 1 E142K],~180
